Measured values as given in US20220227866A1 (VELOSBIO, published 2022).
“And” between values parts separate entries of the source, which are not always exact repeats. Equal entries are not always repeated.

Key:
[1] = target: T1, recombinant human ROR1 extracellular domain (human, UniProt Q01973 30-406); assay: ELISA, Fab titrated on immobilized human ROR1
T1 construct: Bought (Acro Biosystems cat. R01-H522Y); whole entry named; also called ROR1-ECD; immobilized ROR1

[2] = target: T1, recombinant human ROR1 extracellular …; assay: ELISA, immobilised ROR1 ECD, antibody titrated
Description: (§1) A 96-well Costar-3366 plate was coated with 50 μL/well of 2 μg/mL […] (Acro Biosystems cat. #R01-H522Y) in PBS overnight at 4° C. The plate was rinsed once with PBS containing 0.05% Tween 20 (PBS-T) and blocked with 100 μL/well of 5% non-fat milk in PBS (5% M-P) for 1 h at 25° C. Antibody samples were serially diluted 2-fold using 5% M-P and were incubated for 1 h at 25° C. (50 μL/well). The plate was washed three times with PBS-T and 50 μL/well anti-human kappa, HRP conjugate (Southern Biotech cat. #2060-05) diluted 10,000-fold in 5% M-P was added for 1 h at 25° C. The plate was washed three times with PBS-T, developed with 50 μL/well 1-Step Ultra TMB-ELISA (Thermo Scientific cat. #34028). The reaction was terminated by the addition of 2 N H₂SO₄ and the A450 was determined using a Spectramax plate reader.
(§2) Next, the binding of bispecific binding molecules to ROR was characterized by ELISA using recombinantly-expressed extracellular domain of RORL. ROR was immobilized on a microtiter plate, the bispecific binding molecules were titrated, and binding was quantitated with an anti-human kappa-HRP reagent. Consistent with the cell binding data, all constructs bound ROR1 in a concentration-dependent manner (FIG. 6). Moreover, monovalent ROR1 constructs 13-15 bound less tightly than all but two of the bivalent constructs.

[3] = target: T2, soluble biotinylated human ROR1 extracellular domain (human, UniProt Q01973 30-406, biotinylated with EZ-Link Sulfo-NHS-LC-Biotin at a 1:5 molar ratio); assay: ELISA, captured antibody, biotinylated ROR1 titrated
T2 construct: Acro Biosystems cat; whole entry named; also called b-ROR1; soluble b-ROR1
Description: (§3) To measure the binding of bispecific constructs to soluble ROR1, a 96-well Costar-3366 plate was coated with 50 μL/well of 2 μg/mL goat anti-human kappa (Southern Biotech cat. #2060-01) in PBS overnight at 4° C. The plate was rinsed once with PBS-T, blocked with 100 μL/well 5% M-P for 1 h at 25° C., rinsed once with PBS-T, and 2 μg/mL of the bispecific binding molecule was added and incubated for 1 h at 25° C. The plate was washed three times with PBS-T. Biotinylated ROR1 was diluted serially, 3-fold in 5% M-P and was incubated for 1 h at 25° C. (50 μL/well). The plate was washed three times with PBS-T. To detect the binding of b-ROR1, 50 μL/well Neutravidin-HRP (Pierce cat. #31030) diluted 1:5000 in 1% BSA-PBS was added for 1 h at 25° C. […] The reaction was terminated by the addition of 2 N H₂SO₄ and the A450 was determined using a Spectramax plate reader.
(§4) The stronger binding observed with bivalent constructs versus monovalent constructs in cell assays and ELISAs in which the antigen is immobilized is consistent with an avidity effect. To determine if this was the case, binding to soluble monomeric ROR1 was assessed by immobilizing the bispecific binding molecules on a microtiter plate coated with goat anti-human kappa antibody and titrating biotinylated RORL. […]

[4] = target: T3, human CD3 on Jurkat cells (human, UniProt P09693 23-182; P04234 22-171; P07766 23-207); assay: flow cytometry on Jurkat cells
T3 construct: GenBank NP_000064.1, NP_000723.1, NP_000724.1
Method in brief: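 Jurkat cells (2.5E5 per condition) incubated with bispecific molecule in PBS/2% FBS on ice for 20 min, then detected with PE-labelled anti-human Fc (1:500, 20 min on ice). Cells fixed in 2% paraformaldehyde and bound antibody measured by flow cytometry.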

[5] = target: T1, recombinant human ROR1 extracellular …; assay: ELISA, immobilised ROR1 ECD, construct titrated
Description: as §1, §2

human ROR1 on cells [6] = target: T4, human ROR1 on cells (human, UniProt Q01973 30-937); assay: cell-based or functional assay
[7] = target: T2, soluble biotinylated human ROR1 …; assay: ELISA, captured construct, biotinylated ROR1 titrated; first of the two values given
Description: as §3, §4

[8] = target: T2, soluble biotinylated human ROR1 …; assay: ELISA, captured construct, biotinylated ROR1 titrated; second of the two values given
Description: as §3, §4

human ROR1 on cells [9] = target: T4, human ROR1 on cells; assay: cell-based or functional assay; remark: listed apart in the source
human ROR1 on cells [10] = target: T4, human ROR1 on cells; assay: flow cytometry, ROR1-transfected MEC cells, 30 µg/mL
Description: Internalization of bispecific binding molecules was measured using a pulse-chase methodology that quantitates non-internalized, cell surface antibody at 0, 30, 60, 120, 180, and 240 minutes using flow cytometry. ROR1-transfected MEC cells were washed with cold PBS and resuspended at 1×10⁷ per mL in cold incubation buffer (RPMI with 2% FBS—Fisher/Gibco cat. #16140071). Then, 3.5×10⁶ cells were aliquoted to microcentrifuge tubes for each bispecific construct tested. An equal volume (350 μL) of bispecific binding molecule was combined with the cells to make a final concentration of 30 μg/mL. […] Cells and antibody were incubated on ice for 20 minutes, washed five times with 1 mL of cold FACS buffer (PBS with 2% FBS), and resuspended in 1.4 mL of incubation buffer. Subsequently, the samples were incubated at 37° C. for 0, 30, 60, 120, 180, and 240 minutes after which time 200 μL of each sample was transferred to ice to halt internalization.
Samples for each construct and timepoint were split in half (100 μL each) and spun down. Half of the samples were resuspended in 100 μL secondary antibody (goat anti-human IgG-PE, Fc-gamma specific—eBiosciences cat. #12-4998) to detect bound bispecific constructs. The other half was stained with 100 μL cocktail of UC961-PE and 4A5-AlexaFluor647. […] Subsequently, fixed cells were washed once with FACS buffer and analyzed.

[11] = target: T2, soluble biotinylated human ROR1 …; assay: ELISA, captured construct, biotinylated ROR1 titrated

T1 sequence (Q01973 30-406 limits assumed): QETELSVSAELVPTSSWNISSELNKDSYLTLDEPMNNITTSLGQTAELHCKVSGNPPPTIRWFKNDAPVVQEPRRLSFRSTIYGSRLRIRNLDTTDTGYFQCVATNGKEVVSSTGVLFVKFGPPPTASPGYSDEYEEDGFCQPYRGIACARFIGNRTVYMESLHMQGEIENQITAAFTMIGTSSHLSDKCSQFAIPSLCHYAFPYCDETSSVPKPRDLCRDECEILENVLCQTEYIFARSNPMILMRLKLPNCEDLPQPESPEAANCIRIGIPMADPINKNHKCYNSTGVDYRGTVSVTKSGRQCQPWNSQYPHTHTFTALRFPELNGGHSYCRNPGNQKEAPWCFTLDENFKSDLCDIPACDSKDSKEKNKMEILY
T2 sequence (Q01973 30-406 limits assumed): as above
T4 sequence (Q01973 30-937 limits assumed): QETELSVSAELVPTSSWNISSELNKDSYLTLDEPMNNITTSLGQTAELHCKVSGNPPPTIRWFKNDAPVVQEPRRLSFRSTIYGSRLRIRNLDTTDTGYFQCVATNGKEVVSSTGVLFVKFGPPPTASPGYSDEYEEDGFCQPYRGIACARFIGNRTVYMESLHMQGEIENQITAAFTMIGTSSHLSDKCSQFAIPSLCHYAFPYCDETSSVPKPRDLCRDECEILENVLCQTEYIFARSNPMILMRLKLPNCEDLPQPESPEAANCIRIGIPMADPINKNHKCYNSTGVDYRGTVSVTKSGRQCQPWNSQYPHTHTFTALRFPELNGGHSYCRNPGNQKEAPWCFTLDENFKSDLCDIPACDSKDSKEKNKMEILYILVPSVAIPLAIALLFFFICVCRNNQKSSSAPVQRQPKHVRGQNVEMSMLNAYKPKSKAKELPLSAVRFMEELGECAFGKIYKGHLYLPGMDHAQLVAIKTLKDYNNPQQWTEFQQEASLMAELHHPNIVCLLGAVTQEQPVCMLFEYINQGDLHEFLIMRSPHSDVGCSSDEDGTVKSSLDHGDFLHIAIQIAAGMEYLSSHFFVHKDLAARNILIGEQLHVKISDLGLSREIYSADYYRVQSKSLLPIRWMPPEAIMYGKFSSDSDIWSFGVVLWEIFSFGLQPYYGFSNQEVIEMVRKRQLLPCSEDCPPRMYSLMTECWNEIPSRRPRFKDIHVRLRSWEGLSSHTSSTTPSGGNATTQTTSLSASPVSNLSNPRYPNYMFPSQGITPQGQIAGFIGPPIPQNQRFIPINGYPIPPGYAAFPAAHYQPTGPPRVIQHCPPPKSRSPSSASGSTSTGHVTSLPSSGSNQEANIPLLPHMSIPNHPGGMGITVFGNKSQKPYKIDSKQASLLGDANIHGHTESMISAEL
T3 sequence (P09693 23-182 limits assumed, chain 1 of 3): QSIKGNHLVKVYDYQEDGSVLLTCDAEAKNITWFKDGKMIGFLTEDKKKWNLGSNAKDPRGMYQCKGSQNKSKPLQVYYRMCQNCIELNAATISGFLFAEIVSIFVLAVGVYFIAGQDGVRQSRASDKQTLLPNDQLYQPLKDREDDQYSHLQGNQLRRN
T3 sequence (P04234 22-171 limits assumed, chain 2 of 3): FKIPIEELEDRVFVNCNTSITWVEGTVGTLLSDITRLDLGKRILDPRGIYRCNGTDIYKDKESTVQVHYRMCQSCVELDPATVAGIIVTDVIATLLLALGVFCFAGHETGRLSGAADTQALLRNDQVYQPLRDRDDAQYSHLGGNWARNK
T3 sequence (P07766 23-207 limits assumed, chain 3 of 3): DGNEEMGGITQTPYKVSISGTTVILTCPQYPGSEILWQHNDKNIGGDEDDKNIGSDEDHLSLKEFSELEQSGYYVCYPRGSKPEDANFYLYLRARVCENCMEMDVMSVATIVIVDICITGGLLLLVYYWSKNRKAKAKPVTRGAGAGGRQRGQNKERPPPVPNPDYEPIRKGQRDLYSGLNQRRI

B1: parental Ab1 Fab (WT) (Fab, V domains shown)
VH: QVQLQESGPGLVKPSQTLSLTCTVSGYAFTAYNIHWVRQAPGQGLEWMGSFDPYDGGSSYNQKFKDRLTISKDTSKNQVVLTMTNMDPVDTATYYCARGWYYFDYWGHGTLVTVSS
VL: DIVMTQTPLSLPVTPGEPASISCRASKSISKYLAWYQQKPGQAPRLLIYSGSTLQSGIPPRFSGSGYGTDFTLTINNIESEDAAYYFCQQHDESPYTFGEGTKVEIKR
notes: Tested as Fab; also called parental Fab; parental antibody
With B1 the “EC50 (read off the curve)” value [1] was roughly 6 nM.

B2: parental anti-ROR1 IgG (Ab1) (antibody, V domains shown)
VH: QVQLQESGPGLVKPSQTLSLTCTVSGYAFTAYNIHWVRQAPGQGLEWMGSFDPYDGGSSYNQKFKDRLTISKDTSKNQVVLTMTNMDPVDTATYYCARGWYYFDYWGHGTLVTVSS
VL: DIVMTQTPLSLPVTPGEPASISCRASKSISKYLAWYQQKPGQAPRLLIYSGSTLQSGIPPRFSGSGYGTDFTLTINNIESEDAAYYFCQQHDESPYTFGEGTKVEIKR
notes: also called Control; parental IgG
B2 was tested, and the Kd [2] was 0.037 nM and the Kd [3] was 0.158 nM and 0.145 nM.

B3: Bispecific construct 9 (bispecific antibody, human IgG1, kappa)
heavy: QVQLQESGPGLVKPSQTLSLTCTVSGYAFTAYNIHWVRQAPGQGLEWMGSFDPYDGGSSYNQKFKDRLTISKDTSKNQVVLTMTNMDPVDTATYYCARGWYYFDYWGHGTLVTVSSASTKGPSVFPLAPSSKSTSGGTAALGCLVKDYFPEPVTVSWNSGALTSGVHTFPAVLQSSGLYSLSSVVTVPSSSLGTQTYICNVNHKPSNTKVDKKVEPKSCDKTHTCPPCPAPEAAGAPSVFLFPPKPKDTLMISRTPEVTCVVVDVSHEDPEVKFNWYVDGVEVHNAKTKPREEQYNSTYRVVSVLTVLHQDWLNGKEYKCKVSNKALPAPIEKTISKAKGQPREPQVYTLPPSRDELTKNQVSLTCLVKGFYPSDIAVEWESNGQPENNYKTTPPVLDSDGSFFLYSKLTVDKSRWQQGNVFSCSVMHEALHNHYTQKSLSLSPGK
light: DIVMTQTPLSLPVTPGEPASISCRASKSISKYLAWYQQKPGQAPRLLIYSGSTLQSGIPPRFSGSGYGTDFTLTINNIESEDAAYYFCQQHDESPYTFGEGTKVEIKRTVAAPSVFIFPPSDEQLKSGTASVVCLLNNFYPREAKVQWKVDNALQSGNSQESVTEQDSKDSTYSLSSTLTLSKADYEKHKVYACEVTHQGLSSPVTKSFNRGECGGGGSGGGGSEVQLVESGGGLVQPGGSLRLSCAASGFTFNTYAMNWVRQAPGKGLEWVARIRSKYNNYATYYADSVKGRFTISRDDSKNTLYLQMNSLRAEDTAVYYCVRHGNFGNSYVSYFAYWGQGTTVTVSSGGGGSGGGGSGGGGSGGGGSEIVVTQSPATLSVSPGERATLSCRSSTGAVTAANYANWVQEKPGQAFRGLIGGANKRAPGVPARFSGSLSGDEATLTISSLQSEDFAVYYCALFYSNLWVFGQGTKLEIK
notes: anti-CD3 scFv Ab10 (SP34-based); ROR1 arm Ab1; valency 2/2
For B3, the binding result [4] was “binds”, the Kd [5] was 0.158 nM and the “EC50, LDH release, A549” value (human ROR1 on cells [6]) was 9.95 ng/mL and 49.8 pM. The “EC50, LDH release, A4573” value (human ROR1 on cells [6]) was 9.71 ng/mL and 48.6 pM, the “EC50, LDH release, JeKo-1” value (human ROR1 on cells [6]) was 1.71 ng/mL and 8.5 pM and the “EC50, LDH release, MDA-MB-468” value (human ROR1 on cells [6]) was 5.55 ng/mL and 27.8 pM. For the same binder, the “EC50, LDH release, Mino” value (human ROR1 on cells [6]) was 0.75 ng/mL and 3.8 pM, the “EC50, LDH release, NCI-H1975” value (human ROR1 on cells [6]) was 2.3 ng/mL and 11.5 pM and the “EC50, LDH release, Saos-2” value (human ROR1 on cells [6]) was 14.6 ng/mL and 73.2 pM. The “Max. LDH Release, Mino” value (human ROR1 on cells [6]) was 75%, the Kd [7] was 0.268 nM and the Kd [8] was 0.229 nM. The “EC50, LDH release, ROR1-transfected MEC, one PBMC donor” value (human ROR1 on cells [9]) was less than 0.1 ng/mL.

B4: Bispecific construct 13 (bispecific antibody, human IgG1, kappa)
heavy 1: not shown
heavy 2: QVQLVQSGGGVVQPGRSLRLSCKASGYTFTRYTMHWVRQAPGKGLEWIGYINPSRGYTNYNQKVKDRFTISRDNSKNTLYLQMDSLRAEDTAVYYCARYYDDHYSLDYWGQGTTVTVSSGGGGSGGGGSGGGGSGGGGSDIQMTQSPSSLSASVGDRVTITCSASSSVSYMNWYQQKPGKAPKRWIYDTSKLASGVPSRFSGSGSGTDFTFTISSLQPEDIATYYCQQWSSNPFTFGQGTKLEIKEPKSSDKTHTCPPCPAPEAAGAPSVFLFPPKPKDTLMISRTPEVTCVVVDVSHEDPEVKFNWYVDGVEVHNAKTKPREEQYNSTYRVVSVLTVLHQDWLNGKEYKCKVSNKALPAPIEKTISKAKGQPREPQVYTLPPSRDELTKNQVSLSCAVKGFYPSDIAVEWESNGQPENNYKTTPPVLDSDGSFFLVSKLTVDKSRWQQGNVFSCSVMHEALHNHYTQKSLSLSPGK
light: DIVMTQTPLSLPVTPGEPASISCRASKSISKYLAWYQQKPGQAPRLLIYSGSTLQSGIPPRFSGSGYGTDFTLTINNIESEDAAYYFCQQHDESPYTFGEGTKVEIKRTVAAPSVFIFPPSDEQLKSGTASVVCLLNNFYPREAKVQWKVDNALQSGNSQESVTEQDSKDSTYSLSSTLTLSKADYEKHKVYACEVTHQGLSSPVTKSFNRGEC
notes: ROR1 arm Ab1; CD3 valency 1, ROR1 valency 1
For B4, the binding result [4] was “binds”, the Kd [5] was 0.194 nM and the “EC50, LDH release, ROR1-transfected MEC” value (human ROR1 on cells [6]) was 12 ng/mL and 96 pM. For the same binder, the “Max. LDH Release, ROR1-transfected MEC” value (human ROR1 on cells [6]) was 46%, the “binding extent relative to the saturated MFI of constructs 1 and 7 at time 0” value (human ROR1 on cells [10]) was roughly 80% and the Kd [11] was 0.226 nM.
